Test results as given in US20240343806A1 (EUCURE BEIJING BIOPHARMA, published 2024).
Where a chain is given by its changes, count along the chain named.

How the values were obtained:
mouse CTLA4 [1] = target: T1, mouse CTLA4 (mouse, UniProt P09793 36-223); experiment: flow cytometry on CHO-mCTLA4 cells; SSC vs Anti-Human-IgGFc-FITC
T1 construct: Expressed on transfected CHO cells; also called mCTLA4
Method: 25 ul CHO cells were added to each well.
After being washed with PBS (1200 rmp, 5 min) twice, 50 ul of anti-human IgG Fc antibody fluorescein isothiocyanate conjugate (IgG Fc-FITC) was added at 1:100 dilution into each well and was incubated at 4° C. for 30 minutes, followed by PBS wash. The signals for FITC were determined by flow cytometry.

mouse CTLA4 [2] = target: T1, mouse CTLA4; experiment: flow cytometry on CHO-mCTLA4 cells; SSC vs Anti-mouse-IgGFc-FITC

T1 sequence (P09793 36-223 S182T limits assumed): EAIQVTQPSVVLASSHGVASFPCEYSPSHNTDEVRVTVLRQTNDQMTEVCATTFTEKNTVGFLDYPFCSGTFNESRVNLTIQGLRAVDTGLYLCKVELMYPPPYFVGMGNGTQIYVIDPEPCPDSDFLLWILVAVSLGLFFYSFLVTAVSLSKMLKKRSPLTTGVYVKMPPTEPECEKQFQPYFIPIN

B1: CT4-03-4G12-mHvKv-IgG1 (antibody, V domains shown)
VH: DVKLVESGGGLVKPGGSLKLSCTASGFTFSSYTMSWVRQTPEKRLEWVATISRGGGYTSYPDSVKGRFTISRDNAKNTLYLQMSSLQSEDTAMYYCARDDYGSSYVHWFAYWGQGTLVTVSA
VL: DIQMTQSPASLSASVGETVTITCRAGENIYSYLAWYQQKQGKSPQLLVYNARTLAEGVPSRFSGSGSGTQFSLKINSLQPEDFGSYYCQHHYGSPRTFGGGTKLEIK
binding result (mouse CTLA4 [1]): no binding (tested: 1 ug/ml)

B2: CT4-04-13A4-mHvKv-IgG1 (antibody, V domains shown)
VH: QVQLQQSGAELVRPGASVTLSCKASGYTFTDYEMHWVKQTPVHGLEWIGVIDPETGGTAYNQKFKGKATLTADRSSSTAYMELRSLTSEDSAVYYCTRGTTVVGLDYWGQGTTLTVSS
VL: DIQMTQSPASLSASVGESVTITCRASGNIHNYLAWYQQKQGKSPQLLVYKEKTLTDTVPSRFSGSGSGTQFSLKINSLQPEDFGSYYCQHFWSTPWTFGGGTNLEIK
binding result (mouse CTLA4 [1]): no binding (tested: 1 ug/ml)

B3: CT4-20-6D2 (antibody, V domains shown)
VH: QVQLQQSGAELVRPGASVTLSCKASGYTFTDYEMHWVKQTPVHGLEWIGTIDPETGGTAYNQKFKGKATLTTDKSSSTAYMELRSLTSEDSAVYYCTRRGKYGNYDYVMDYWGQGTSVTVSS
VL: B2 VL with S18T, Y49F, K50N, E51A, T55A, T57G, F71Y, S85N, N103K
notes: Mouse monoclonal antibody purified from ascites fluid
binding result (mouse CTLA4 [2]): no binding (tested: 1 ug/ml)

B4: CT4-20-7E12 (antibody, V domains shown)
VH: EVKLDETGGGLVQPGRPMKLSCVASGFTFSDYWMNWVRQSPEKGLEWVAQIRNKPYNYETHYSDSVKGRFTISRDDSKSSVYLQMNNLRGEDMGIYYCTGTFAYWGQGTLVTVSA
VL: DIQMTQSPTSLSASVGETVTITCGTSENIYGGLNWYQRKQGKSPQLLIYGATNLADGMSSRFSGSGSGRQYSLKISSLHPDDVATYYCQNVLSTPYTFGGGTKLEIK
notes: as for B3
binding result (mouse CTLA4 [2]): no binding (tested: 1 ug/ml)
